Laboratory results as given in the supplement of paper PMC7877785.
± gives the uncertainty stated by the source.

Experiment: self-splicing fitness, log relative to wild type (ln ratio); higher = more splicing; Tetrahymena group I intron in knt gene, E. coli kanamycin selection, DiMSum; sequences stand for … in CUCUCU…GGAGGGAAAAGUUAUCAGGCAUGCACCUGGUAGCUAGUCUUUAAACCAAUAGAUUGCAUCGGUUUAAAAGGCAAGACCGUCAAAUUGCGGGAAAGGGGUCAACAGCCGUUCAGUACCAAGUCUCAGGGGAAACUUUGAGAUGGCCUUGCAAAGGGUAUGGUAAUAAGCUGACGGACAUGGUCCUAACCACGCAGCCAAGUCCUAAGUCAACAGAUCUUCUGUUGAUAUGGAUGCAGUUCACAGACUAAAUGUCGGUCGGGGAAGAUGUAUUCUUCUCAUAAGAUAUAGUCGGACCUCUCCUUAAUGGGAGCUAGCGGAUGAAGUGAUGCAACACUGGAGCCGCUGGGAACUAAUUUGUAUGCGAAAGUAUAUUGAUUAGUUUUGGAGUACUCGUGGUCG
In short: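 A randomised library covering all eight P1ex-region intron nucleotides was built with the intron in the knt kanamycin-resistance gene on pET-22b(+) and held in E. coli BL21(DE3). Cells were grown overnight at 37°C or 30°C on LB agar, with or without 25 μg/mL kanamycin, plus 100 μg/mL carbenicillin, 50 μM IPTG and 0.2% rhamnose, and pooled colonies were amplicon-sequenced on an Illumina HiSeq 2500. DiMSum fitness is the error-weighted combination of wild-type-normalised replicate fold changes, kanamycin versus none.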

CCUCAGCAAUAUUACGCGCU
self-splicing fitness (ln) (30 °C): -2 ± 0.13
self-splicing fitness (ln) (37 °C): -2.79 ± 0.25

CCUCAGCAAUAUUACGCGGC
self-splicing fitness (ln) (30 °C): -3.25 ± 0.2
self-splicing fitness (ln) (37 °C): -2.5 ± 0.2

CCUCAGCAAUAUUACGCGUG
self-splicing fitness (ln) (30 °C): -1.85 ± 0.081
self-splicing fitness (ln) (37 °C): -0.545 ± 0.072

CCUCAGCAAUAUUACGGAAA
self-splicing fitness (ln) (30 °C): -3.7 ± 0.23
self-splicing fitness (ln) (37 °C): -1.63 ± 0.17

CCUCAGCAAUAUUACGGACG
self-splicing fitness (ln) (30 °C): -0.587 ± 0.064
self-splicing fitness (ln) (37 °C): 0.272 ± 0.081

CCUCAGCAAUAUUACGGACU
self-splicing fitness (ln) (30 °C): -3.93 ± 0.33
self-splicing fitness (ln) (37 °C): -1.79 ± 0.24

CCUCAGCAAUAUUACGGCAA
self-splicing fitness (ln) (30 °C): -3.12 ± 0.24
self-splicing fitness (ln) (37 °C): -2.41 ± 0.23

CCUCAGCAAUAUUACGGGAC
self-splicing fitness (ln) (30 °C): -3.63 ± 0.23
self-splicing fitness (ln) (37 °C): -1.98 ± 0.26

CCUCAGCAAUAUUACGGGCA
self-splicing fitness (ln) (37 °C): -2.2 ± 0.24

CCUCAGCAAUAUUACGGGUU
self-splicing fitness (ln) (30 °C): -4.07 ± 0.21
self-splicing fitness (ln) (37 °C): -2.02 ± 0.15

CCUCAGCAAUAUUACGUAAA
self-splicing fitness (ln) (30 °C): -3.87 ± 0.24
self-splicing fitness (ln) (37 °C): -3.05 ± 0.29

CCUCAGCAAUAUUACGUAUC
self-splicing fitness (ln) (30 °C): -0.834 ± 0.13
self-splicing fitness (ln) (37 °C): -3.05 ± 0.26

CCUCAGCAAUAUUACGUUAA
self-splicing fitness (ln) (30 °C): -2.89 ± 0.17
self-splicing fitness (ln) (37 °C): -2.96 ± 0.23

CCUCAGCAAUAUUACGUUCC
self-splicing fitness (ln) (30 °C): -3.09 ± 0.15
self-splicing fitness (ln) (37 °C): -2.42 ± 0.33

CCUGAGCAAUAUUACGAAAU
self-splicing fitness (ln) (30 °C): -3.15 ± 0.29
self-splicing fitness (ln) (37 °C): -0.975 ± 0.19

CCUGAGCAAUAUUACGACGG
self-splicing fitness (ln) (30 °C): -3.06 ± 0.25
self-splicing fitness (ln) (37 °C): -2.59 ± 0.48

CCUGAGCAAUAUUACGACUC
self-splicing fitness (ln) (30 °C): -1.44 ± 0.36
self-splicing fitness (ln) (37 °C): -1.6 ± 0.49

CCUGAGCAAUAUUACGCAGA
self-splicing fitness (ln) (30 °C): -3.44 ± 0.23
self-splicing fitness (ln) (37 °C): -1.96 ± 0.15

CCUGAGCAAUAUUACGCAUC
self-splicing fitness (ln) (30 °C): -3.39 ± 0.44

CCUGAGCAAUAUUACGCCAC
self-splicing fitness (ln) (30 °C): -3.2 ± 0.45
self-splicing fitness (ln) (37 °C): -1.35 ± 0.36

CCUGAGCAAUAUUACGCCAG
self-splicing fitness (ln) (30 °C): -2.75 ± 0.41
self-splicing fitness (ln) (37 °C): -1.62 ± 0.32

CCUGAGCAAUAUUACGCCGG
self-splicing fitness (ln) (37 °C): -1.71 ± 0.39

CCUGAGCAAUAUUACGCGAG
self-splicing fitness (ln) (30 °C): -4.35 ± 0.42
self-splicing fitness (ln) (37 °C): -2.63 ± 0.28

CCUGAGCAAUAUUACGCGUU
self-splicing fitness (ln) (30 °C): -3.53 ± 0.29
self-splicing fitness (ln) (37 °C): -3.12 ± 0.35

CCUGAGCAAUAUUACGCUUC
self-splicing fitness (ln) (30 °C): -3.16 ± 0.48
self-splicing fitness (ln) (37 °C): -2.4 ± 0.41

CCUGAGCAAUAUUACGGAAG
self-splicing fitness (ln) (30 °C): -2.82 ± 0.15
self-splicing fitness (ln) (37 °C): -1.29 ± 0.12

CCUGAGCAAUAUUACGGACU
self-splicing fitness (ln) (30 °C): -1.55 ± 0.13
self-splicing fitness (ln) (37 °C): -3.3 ± 0.32

CCUGAGCAAUAUUACGGCGU
self-splicing fitness (ln) (30 °C): -3.51 ± 0.2
self-splicing fitness (ln) (37 °C): -2.88 ± 0.19

CCUGAGCAAUAUUACGGGCC
self-splicing fitness (ln) (30 °C): -3.87 ± 0.31
self-splicing fitness (ln) (37 °C): -2.45 ± 0.23

CCUGAGCAAUAUUACGGGUC
self-splicing fitness (ln) (30 °C): -2.95 ± 0.17
self-splicing fitness (ln) (37 °C): -2.87 ± 0.27

CCUGAGCAAUAUUACGGUGU
self-splicing fitness (ln) (30 °C): -3.89 ± 0.24
self-splicing fitness (ln) (37 °C): -2.32 ± 0.14

CCUGAGCAAUAUUACGUAAG
self-splicing fitness (ln) (30 °C): -3.03 ± 0.19
self-splicing fitness (ln) (37 °C): -1.6 ± 0.12

CCUGAGCAAUAUUACGUACA
self-splicing fitness (ln) (30 °C): -3.13 ± 0.33
self-splicing fitness (ln) (37 °C): -0.722 ± 0.3

CCUGAGCAAUAUUACGUCGG
self-splicing fitness (ln) (30 °C): -4.36 ± 0.36
self-splicing fitness (ln) (37 °C): -2.47 ± 0.23

CCUGAGCAAUAUUACGUCGU
self-splicing fitness (ln) (30 °C): -2.02 ± 0.43
self-splicing fitness (ln) (37 °C): -2.06 ± 0.27

CCUGAGCAAUAUUACGUGAA
self-splicing fitness (ln) (30 °C): -4.54 ± 0.34
self-splicing fitness (ln) (37 °C): -2.83 ± 0.21

CCUGAGCAAUAUUACGUGCC
self-splicing fitness (ln) (37 °C): -1.6 ± 0.32

CCUGAGCAAUAUUACGUUAA
self-splicing fitness (ln) (30 °C): -2.92 ± 0.24
self-splicing fitness (ln) (37 °C): -2.52 ± 0.26

CCUGAGCAAUAUUACGUUAU
self-splicing fitness (ln) (30 °C): -3.15 ± 0.26
self-splicing fitness (ln) (37 °C): -1.96 ± 0.21

CCUGAGCAAUAUUACGUUCU
self-splicing fitness (ln) (30 °C): -3.63 ± 0.25
self-splicing fitness (ln) (37 °C): -2.43 ± 0.25

CCUUAGCAAUAUUACGAACG
self-splicing fitness (ln) (30 °C): -0.742 ± 0.18
self-splicing fitness (ln) (37 °C): -0.847 ± 0.25

CCUUAGCAAUAUUACGACCA
self-splicing fitness (ln) (30 °C): -2.66 ± 0.36

CCUUAGCAAUAUUACGAGUC
self-splicing fitness (ln) (37 °C): -2.7 ± 0.28

CCUUAGCAAUAUUACGAUGC
self-splicing fitness (ln) (30 °C): -4.15 ± 0.27
self-splicing fitness (ln) (37 °C): -2.62 ± 0.17

CCUUAGCAAUAUUACGCCGG
self-splicing fitness (ln) (30 °C): -3.82 ± 0.28
self-splicing fitness (ln) (37 °C): -2.73 ± 0.26

CCUUAGCAAUAUUACGCCUG
self-splicing fitness (ln) (37 °C): -2.89 ± 0.34

CCUUAGCAAUAUUACGCCUU
self-splicing fitness (ln) (30 °C): -3.52 ± 0.32
self-splicing fitness (ln) (37 °C): -2.57 ± 0.24

CCUUAGCAAUAUUACGCGGA
self-splicing fitness (ln) (30 °C): -2.93 ± 0.19
self-splicing fitness (ln) (37 °C): -2.55 ± 0.21

CCUUAGCAAUAUUACGCUAU
self-splicing fitness (ln) (30 °C): -3.14 ± 0.14
self-splicing fitness (ln) (37 °C): -2.64 ± 0.18

CCUUAGCAAUAUUACGCUGA
self-splicing fitness (ln) (30 °C): -3.23 ± 0.47

CCUUAGCAAUAUUACGGAUA
self-splicing fitness (ln) (30 °C): -2.98 ± 0.29
self-splicing fitness (ln) (37 °C): -1.92 ± 0.37

CCUUAGCAAUAUUACGGCGU
self-splicing fitness (ln) (30 °C): -3.94 ± 0.33
self-splicing fitness (ln) (37 °C): -2.78 ± 0.32

CCUUAGCAAUAUUACGGGGG
self-splicing fitness (ln) (30 °C): -3.17 ± 0.23
self-splicing fitness (ln) (37 °C): -1.39 ± 0.23

CCUUAGCAAUAUUACGGGUA
self-splicing fitness (ln) (30 °C): -2.65 ± 0.19
self-splicing fitness (ln) (37 °C): -2.38 ± 0.26

CCUUAGCAAUAUUACGGGUU
self-splicing fitness (ln) (37 °C): -1.5 ± 0.21

CCUUAGCAAUAUUACGGUAC
self-splicing fitness (ln) (30 °C): -4.06 ± 0.21
self-splicing fitness (ln) (37 °C): -2.44 ± 0.19

CCUUAGCAAUAUUACGGUUU
self-splicing fitness (ln) (30 °C): -4.06 ± 0.16
self-splicing fitness (ln) (37 °C): -2.42 ± 0.14

CCUUAGCAAUAUUACGUAAA
self-splicing fitness (ln) (30 °C): -3.63 ± 0.26
self-splicing fitness (ln) (37 °C): -1.88 ± 0.3

CCUUAGCAAUAUUACGUAGU
self-splicing fitness (ln) (30 °C): -2.48 ± 0.095
self-splicing fitness (ln) (37 °C): -0.664 ± 0.098

CCUUAGCAAUAUUACGUGCG
self-splicing fitness (ln) (30 °C): -3.52 ± 0.21
self-splicing fitness (ln) (37 °C): -2.04 ± 0.17

CCUUAGCAAUAUUACGUGGA
self-splicing fitness (ln) (30 °C): -4.29 ± 0.34
self-splicing fitness (ln) (37 °C): -2 ± 0.2

CGAAAGCAAUAUUACGAACA
self-splicing fitness (ln) (30 °C): -1.92 ± 0.13
self-splicing fitness (ln) (37 °C): -0.112 ± 0.12

CGAAAGCAAUAUUACGAACU
self-splicing fitness (ln) (30 °C): -1.25 ± 0.091
self-splicing fitness (ln) (37 °C): 0.0371 ± 0.14

CGAAAGCAAUAUUACGAAUU
self-splicing fitness (ln) (30 °C): -4.27 ± 0.29
self-splicing fitness (ln) (37 °C): -1.55 ± 0.14

CGAAAGCAAUAUUACGACUC
self-splicing fitness (ln) (30 °C): -2.84 ± 0.14
self-splicing fitness (ln) (37 °C): -1.63 ± 0.14

CGAAAGCAAUAUUACGAGGA
self-splicing fitness (ln) (30 °C): -3.36 ± 0.25
self-splicing fitness (ln) (37 °C): -1.13 ± 0.21

CGAAAGCAAUAUUACGAGUA
self-splicing fitness (ln) (30 °C): -3.07 ± 0.19
self-splicing fitness (ln) (37 °C): -2.36 ± 0.18

CGAAAGCAAUAUUACGAUAU
self-splicing fitness (ln) (30 °C): -3.42 ± 0.28
self-splicing fitness (ln) (37 °C): -1.27 ± 0.2

CGAAAGCAAUAUUACGCAAU
self-splicing fitness (ln) (30 °C): -3 ± 0.13
self-splicing fitness (ln) (37 °C): -3.64 ± 0.26

CGAAAGCAAUAUUACGCACG
self-splicing fitness (ln) (30 °C): -3.27 ± 0.17
self-splicing fitness (ln) (37 °C): -2.03 ± 0.15

CGAAAGCAAUAUUACGCAGC
self-splicing fitness (ln) (30 °C): -3 ± 0.24
self-splicing fitness (ln) (37 °C): -3.68 ± 0.33

CGAAAGCAAUAUUACGCCAA
self-splicing fitness (ln) (30 °C): -2.65 ± 0.2
self-splicing fitness (ln) (37 °C): -2.41 ± 0.22

CGAAAGCAAUAUUACGCCUG
self-splicing fitness (ln) (30 °C): -0.16 ± 0.095
self-splicing fitness (ln) (37 °C): 0.392 ± 0.11

CGAAAGCAAUAUUACGCGCC
self-splicing fitness (ln) (30 °C): -1.85 ± 0.21
self-splicing fitness (ln) (37 °C): 0.0231 ± 0.24

CGAAAGCAAUAUUACGCGCU
self-splicing fitness (ln) (30 °C): -2.08 ± 0.13
self-splicing fitness (ln) (37 °C): -1.6 ± 0.12

CGAAAGCAAUAUUACGCUGA
self-splicing fitness (ln) (30 °C): -3.09 ± 0.22
self-splicing fitness (ln) (37 °C): -1.54 ± 0.19

CGAAAGCAAUAUUACGCUUU
self-splicing fitness (ln) (30 °C): -3.54 ± 0.35
self-splicing fitness (ln) (37 °C): -2.7 ± 0.41

CGAAAGCAAUAUUACGGAAA
self-splicing fitness (ln) (30 °C): -2.9 ± 0.28
self-splicing fitness (ln) (37 °C): -2.49 ± 0.22
